{"source": "patent US20240209065A1", "about": "(SINGLOMICS BEIJING DANXU BIOPHARMACEUTICALS, published 2024)", "key": {"[1]": {"target": "S protein of authentic SARS-CoV-2 G614 virus (SARS-CoV-2, UniProt P0DTC2 14-1273)", "assay": "cell-based or functional assay"}, "[2]": {"target": "S protein of authentic SARS-CoV-2 G614 virus (SARS-CoV-2, UniProt P0DTC2 14-1273)", "assay": "cell-based or functional assay", "remark": "listed apart in the source"}}}
{"binder": "DXP-604 dimeric IgA1 (antibody) heavy: not shown light: DIQLTQSPSFLSASVGDRVTITCRASQGISSDLAWYQQKPGKAPNLLIYAASTLQSGVPSRFSGSGSGTEFTLTISSLQPEDFATYYCQQLNSDLYTFGQGTKLEIKRTVAAPSVFIFPPSDEQLKSGTASVVCLLNNFYPREAKVQWKVDNALQSGNSQESVTEQDSKDSTYSLSSTLTLSKADYEKHKVYACEVTHQGLSSPVTKSFNRGEC not shown", "values": [{"measurement": "IC50, microneutralization assay with authentic virus", "setting": "[1]", "result": 0.11, "unit": "nM"}]}
{"binder": "DXP-604 secretory IgA1 (antibody) heavy: not shown light: DIQLTQSPSFLSASVGDRVTITCRASQGISSDLAWYQQKPGKAPNLLIYAASTLQSGVPSRFSGSGSGTEFTLTISSLQPEDFATYYCQQLNSDLYTFGQGTKLEIKRTVAAPSVFIFPPSDEQLKSGTASVVCLLNNFYPREAKVQWKVDNALQSGNSQESVTEQDSKDSTYSLSSTLTLSKADYEKHKVYACEVTHQGLSSPVTKSFNRGEC chain 1: not shown chain 2: not shown", "values": [{"measurement": "IC50, microneutralization assay with authentic virus", "setting": "[1]", "result": 0.04, "unit": "nM"}]}
{"binder": "XG014 IgG (antibody, V domains shown) VH: EVQLVQSGAEVKKPGESLKISCKGSGYSFSNYWIGWVRHMPGKGLEWMGIIYPGDSDTRYSPSFQGQVTISVDTSISTAYLQWSSLKASDTAMYYCTRHQYGYNYGYFYYYIDVWGKGTTVTVSS VL: QSVLTQPPSVSAAPGQKVTISCSGSSSNIGNNPVSWYRQVPGTAPKLLIYDNNKRPSGIPDRFSGSKSGASATLGITGLQTGDEADYYCGTWHTSLSSGVFGGGTKLTVL", "values": [{"measurement": "IC50, microneutralization assay with authentic virus", "setting": "[2]", "result": 0.24, "unit": "nM"}]}
